test system: Escherichia coli TOP10; assay: shrunken log2 fold change of peptide-encoding DNA abundance (4.5 h post-induction vs induction); higher = less antimicrobial activity (less host growth inhibition); conditions: time post-induction: 4.5 h; library: site-saturation at positions 5, 18, 19, 20
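Also: peptides expressed intracellularly from a pBAD plasmid library in pooled LB shake-flask culture, induced with 0.3% L-arabinose, DNA abundance read by NGS, three biological replicates, DESeq2 with apeglm shrinkage.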

Sequence	shrunken log2 fold change
RRIRVRPPRLPRPRPRPFQVPRP	-0.0887
RRIRCRPPRLPRPRPRPQKNPRP	-0.281
RRIRHRPPRLPRPRPRPRFSPRP	-0.137
RRIRMRPPRLPRPRPRPNLCPRP	0.015
RRIRWRPPRLPRPRPRPGQCPRP	0.00553
RRIRIRPPRLPRPRPRPMADPRP	-0.0382
RRIRIRPPRLPRPRPRPPHGPRP	-0.0482
RRIRNRPPRLPRPRPRPSHGPRP	0.108
RRIRCRPPRLPRPRPRPCGPPRP	-0.104
RRIRGRPPRLPRPRPRPPEGPRP	1.15
RRIRFRPPRLPRPRPRPLGIPRP	-0.869
RRIRVRPPRLPRPRPRPPANPRP	0.3
RRIRYRPPRLPRPRPRPLEAPRP	0.0153
RRIRQRPPRLPRPRPRPASPPRP	-0.0456
RRIRTRPPRLPRPRPRPNPEPRP	-0.101
RRIRIRPPRLPRPRPRPETVPRP	-0.344
RRIRKRPPRLPRPRPRPLQNPRP	0.551
RRIRYRPPRLPRPRPRPDEPPRP	-0.0449
RRIRTRPPRLPRPRPRPAIDPRP	-0.206
RRIRCRPPRLPRPRPRPEWMPRP	-0.0041
RRIRVRPPRLPRPRPRPATKPRP	0.153
RRIRERPPRLPRPRPRPNRQPRP	0.0895
RRIRYRPPRLPRPRPRPVLHPRP	-0.5
RRIRYRPPRLPRPRPRPWVEPRP	0.0344
RRIRRRPPRLPRPRPRPPYYPRP	0.108

Sequence	shrunken log2 fold change
RRIRRRPPRLPRPRPRPYKDPRP	-0.249
RRIRPRPPRLPRPRPRPMKRPRP	0.153
RRIRFRPPRLPRPRPRPMSSPRP	-0.0482
RRIRDRPPRLPRPRPRPLPVPRP	-0.421
RRIRRRPPRLPRPRPRPCQTPRP	-0.041
RRIRFRPPRLPRPRPRPWKQPRP	-0.469
RRIRNRPPRLPRPRPRPQCNPRP	-0.468
RRIRHRPPRLPRPRPRPRGKPRP	-0.241
RRIRVRPPRLPRPRPRPTPPPRP	0.406
RRIRARPPRLPRPRPRPQDWPRP	0.556
RRIRWRPPRLPRPRPRPASIPRP	-0.336
RRIRIRPPRLPRPRPRPINKPRP	-1.11
RRIRYRPPRLPRPRPRPALDPRP	-0.132
RRIRARPPRLPRPRPRPKAAPRP	0.878
RRIRLRPPRLPRPRPRPMKLPRP	-0.187
RRIRMRPPRLPRPRPRPLYNPRP	-0.335
RRIRGRPPRLPRPRPRPVRLPRP	0.525
RRIRLRPPRLPRPRPRPEDWPRP	0.544
RRIRWRPPRLPRPRPRPIMLPRP	0.464
RRIRFRPPRLPRPRPRPGPSPRP	0.764
RRIRRRPPRLPRPRPRPVKDPRP	-0.0534
RRIRHRPPRLPRPRPRPGGKPRP	-0.0185
RRIRDRPPRLPRPRPRPSGEPRP	0.0799
RRIRQRPPRLPRPRPRPIWIPRP	-0.206
RRIRTRPPRLPRPRPRPAYQPRP	-0.0436

Sequence	shrunken log2 fold change
RRIRQRPPRLPRPRPRPLNRPRP	-0.191
RRIRVRPPRLPRPRPRPIMLPRP	-0.122
RRIRTRPPRLPRPRPRPRISPRP	-0.106
RRIRYRPPRLPRPRPRPVLFPRP	-0.598
RRIRMRPPRLPRPRPRPAVAPRP	1.04
RRIRERPPRLPRPRPRPLRTPRP	0.00359
RRIRPRPPRLPRPRPRPWQYPRP	0.0173
RRIRARPPRLPRPRPRPRKIPRP	0.429
RRIRNRPPRLPRPRPRPFQIPRP	-0.121
RRIRWRPPRLPRPRPRPHNTPRP	-0.391
RRIRFRPPRLPRPRPRPMKCPRP	-0.695
RRIRYRPPRLPRPRPRPQDVPRP	-0.103
RRIRFRPPRLPRPRPRPVSHPRP	-0.266
RRIRNRPPRLPRPRPRPPNDPRP	0.182
RRIRPRPPRLPRPRPRPTWIPRP	0.184
RRIRVRPPRLPRPRPRPCFDPRP	-0.121
RRIRTRPPRLPRPRPRPEEMPRP	0.133
RRIRERPPRLPRPRPRPFRRPRP	0.0491
RRIRHRPPRLPRPRPRPEHPPRP	0.00839
RRIRERPPRLPRPRPRPRVAPRP	0.343
RRIRPRPPRLPRPRPRPDLPPRP	0.315
RRIRFRPPRLPRPRPRPMPNPRP	0.0592
RRIRARPPRLPRPRPRPMSRPRP	-0.171
RRIRVRPPRLPRPRPRPSWKPRP	-0.0781
RRIRVRPPRLPRPRPRPPTIPRP	0.0741

Sequence	shrunken log2 fold change
RRIRSRPPRLPRPRPRPFTKPRP	-0.202
RRIRFRPPRLPRPRPRPETSPRP	0.0493
RRIRYRPPRLPRPRPRPGYGPRP	-0.541
RRIRGRPPRLPRPRPRPHVRPRP	0.427
RRIRKRPPRLPRPRPRPMRNPRP	1.32
RRIRYRPPRLPRPRPRPRLPPRP	-0.0393
RRIRVRPPRLPRPRPRPIHLPRP	-0.197
RRIRRRPPRLPRPRPRPYNIPRP	-0.464
RRIRARPPRLPRPRPRPIMIPRP	-0.261
RRIRKRPPRLPRPRPRPQIRPRP	-0.0406
RRIRHRPPRLPRPRPRPINQPRP	-0.243
RRIRHRPPRLPRPRPRPSKYPRP	-0.776
RRIRWRPPRLPRPRPRPPRFPRP	0.326
RRIRDRPPRLPRPRPRPVNHPRP	-0.514
RRIRSRPPRLPRPRPRPCSGPRP	-0.0317
RRIRKRPPRLPRPRPRPREQPRP	0.609
RRIRTRPPRLPRPRPRPALEPRP	0.122
RRIRHRPPRLPRPRPRPEADPRP	-0.00192
RRIRWRPPRLPRPRPRPGLWPRP	1.16
RRIRGRPPRLPRPRPRPACIPRP	0.666
RRIRGRPPRLPRPRPRPGLAPRP	1.25
RRIRCRPPRLPRPRPRPQECPRP	-0.0139
RRIRRRPPRLPRPRPRPMGVPRP	0.324
RRIRRRPPRLPRPRPRPHPIPRP	0.35
RRIRVRPPRLPRPRPRPHSEPRP	-0.392

Sequence	shrunken log2 fold change
RRIRGRPPRLPRPRPRPVVFPRP	0.56
RRIRSRPPRLPRPRPRPHCHPRP	-0.783
RRIRYRPPRLPRPRPRPHRPPRP	0.0424
RRIRTRPPRLPRPRPRPQWCPRP	-0.0353
RRIRVRPPRLPRPRPRPLKSPRP	-0.137
RRIRLRPPRLPRPRPRPRSMPRP	-0.326
RRIRPRPPRLPRPRPRPPALPRP	0.388
RRIRHRPPRLPRPRPRPRIYPRP	-0.584
RRIRQRPPRLPRPRPRPHPLPRP	-0.0478
RRIRVRPPRLPRPRPRPPKAPRP	0.077
RRIRHRPPRLPRPRPRPGPIPRP	-0.133
RRIRFRPPRLPRPRPRPTQNPRP	0.541
RRIRIRPPRLPRPRPRPLLAPRP	0.185
RRIRHRPPRLPRPRPRPNLLPRP	-0.13
RRIRPRPPRLPRPRPRPDTEPRP	-0.48
RRIRSRPPRLPRPRPRPWPNPRP	-0.13
RRIRHRPPRLPRPRPRPTKLPRP	-0.255
RRIRFRPPRLPRPRPRPVSAPRP	0.25
RRIRWRPPRLPRPRPRPEPMPRP	0.38
RRIRHRPPRLPRPRPRPAYNPRP	-1.04
RRIRERPPRLPRPRPRPTELPRP	-0.577
RRIRVRPPRLPRPRPRPFMLPRP	-0.279
RRIRGRPPRLPRPRPRPTQNPRP	0.972
RRIRSRPPRLPRPRPRPHQVPRP	-0.0813
RRIRIRPPRLPRPRPRPECPPRP	-0.0846

Sequence	shrunken log2 fold change
RRIRLRPPRLPRPRPRPPQRPRP	0.26
RRIRDRPPRLPRPRPRPRTIPRP	-0.018
RRIRYRPPRLPRPRPRPPKHPRP	-0.165
RRIRQRPPRLPRPRPRPLAFPRP	-0.232
RRIRHRPPRLPRPRPRPEQQPRP	0.096
RRIRHRPPRLPRPRPRPLFQPRP	-0.108
RRIRNRPPRLPRPRPRPDCHPRP	0.081
RRIRARPPRLPRPRPRPGCFPRP	0.96
RRIRSRPPRLPRPRPRPDLVPRP	0.0452
RRIRLRPPRLPRPRPRPSYYPRP	-0.963
RRIRVRPPRLPRPRPRPRESPRP	0.259
RRIRYRPPRLPRPRPRPEFTPRP	-0.0369
RRIRDRPPRLPRPRPRPEIEPRP	0.522
RRIRPRPPRLPRPRPRPFTLPRP	-0.379
RRIRMRPPRLPRPRPRPHDPPRP	0.000689
RRIRRRPPRLPRPRPRPLQIPRP	0.0422
RRIRSRPPRLPRPRPRPFCHPRP	-0.162
RRIRVRPPRLPRPRPRPQGNPRP	0.055
RRIRQRPPRLPRPRPRPVRNPRP	-0.0556
RRIRIRPPRLPRPRPRPTVKPRP	-0.468
RRIRQRPPRLPRPRPRPRFEPRP	0.0165
RRIRTRPPRLPRPRPRPGWGPRP	0.343
RRIRLRPPRLPRPRPRPFHSPRP	-0.177
RRIRGRPPRLPRPRPRPMQDPRP	0.108
RRIRERPPRLPRPRPRPVHTPRP	-0.00346

Reference: the supplement of paper PMC9112550, “Optimization of the antimicrobial peptide Bac7 by deep mutational scanning” (BMC Biology, 2022)
